Patent publication US20030176331A1

Target: high molecular weight glycoprotein gp240 on melanoma cells (human) (UniProt Q6UVK1)
Experiment: cell-based or functional assay

Chain of UniProt Q6UVK1 (Q6UVK1 30-2322): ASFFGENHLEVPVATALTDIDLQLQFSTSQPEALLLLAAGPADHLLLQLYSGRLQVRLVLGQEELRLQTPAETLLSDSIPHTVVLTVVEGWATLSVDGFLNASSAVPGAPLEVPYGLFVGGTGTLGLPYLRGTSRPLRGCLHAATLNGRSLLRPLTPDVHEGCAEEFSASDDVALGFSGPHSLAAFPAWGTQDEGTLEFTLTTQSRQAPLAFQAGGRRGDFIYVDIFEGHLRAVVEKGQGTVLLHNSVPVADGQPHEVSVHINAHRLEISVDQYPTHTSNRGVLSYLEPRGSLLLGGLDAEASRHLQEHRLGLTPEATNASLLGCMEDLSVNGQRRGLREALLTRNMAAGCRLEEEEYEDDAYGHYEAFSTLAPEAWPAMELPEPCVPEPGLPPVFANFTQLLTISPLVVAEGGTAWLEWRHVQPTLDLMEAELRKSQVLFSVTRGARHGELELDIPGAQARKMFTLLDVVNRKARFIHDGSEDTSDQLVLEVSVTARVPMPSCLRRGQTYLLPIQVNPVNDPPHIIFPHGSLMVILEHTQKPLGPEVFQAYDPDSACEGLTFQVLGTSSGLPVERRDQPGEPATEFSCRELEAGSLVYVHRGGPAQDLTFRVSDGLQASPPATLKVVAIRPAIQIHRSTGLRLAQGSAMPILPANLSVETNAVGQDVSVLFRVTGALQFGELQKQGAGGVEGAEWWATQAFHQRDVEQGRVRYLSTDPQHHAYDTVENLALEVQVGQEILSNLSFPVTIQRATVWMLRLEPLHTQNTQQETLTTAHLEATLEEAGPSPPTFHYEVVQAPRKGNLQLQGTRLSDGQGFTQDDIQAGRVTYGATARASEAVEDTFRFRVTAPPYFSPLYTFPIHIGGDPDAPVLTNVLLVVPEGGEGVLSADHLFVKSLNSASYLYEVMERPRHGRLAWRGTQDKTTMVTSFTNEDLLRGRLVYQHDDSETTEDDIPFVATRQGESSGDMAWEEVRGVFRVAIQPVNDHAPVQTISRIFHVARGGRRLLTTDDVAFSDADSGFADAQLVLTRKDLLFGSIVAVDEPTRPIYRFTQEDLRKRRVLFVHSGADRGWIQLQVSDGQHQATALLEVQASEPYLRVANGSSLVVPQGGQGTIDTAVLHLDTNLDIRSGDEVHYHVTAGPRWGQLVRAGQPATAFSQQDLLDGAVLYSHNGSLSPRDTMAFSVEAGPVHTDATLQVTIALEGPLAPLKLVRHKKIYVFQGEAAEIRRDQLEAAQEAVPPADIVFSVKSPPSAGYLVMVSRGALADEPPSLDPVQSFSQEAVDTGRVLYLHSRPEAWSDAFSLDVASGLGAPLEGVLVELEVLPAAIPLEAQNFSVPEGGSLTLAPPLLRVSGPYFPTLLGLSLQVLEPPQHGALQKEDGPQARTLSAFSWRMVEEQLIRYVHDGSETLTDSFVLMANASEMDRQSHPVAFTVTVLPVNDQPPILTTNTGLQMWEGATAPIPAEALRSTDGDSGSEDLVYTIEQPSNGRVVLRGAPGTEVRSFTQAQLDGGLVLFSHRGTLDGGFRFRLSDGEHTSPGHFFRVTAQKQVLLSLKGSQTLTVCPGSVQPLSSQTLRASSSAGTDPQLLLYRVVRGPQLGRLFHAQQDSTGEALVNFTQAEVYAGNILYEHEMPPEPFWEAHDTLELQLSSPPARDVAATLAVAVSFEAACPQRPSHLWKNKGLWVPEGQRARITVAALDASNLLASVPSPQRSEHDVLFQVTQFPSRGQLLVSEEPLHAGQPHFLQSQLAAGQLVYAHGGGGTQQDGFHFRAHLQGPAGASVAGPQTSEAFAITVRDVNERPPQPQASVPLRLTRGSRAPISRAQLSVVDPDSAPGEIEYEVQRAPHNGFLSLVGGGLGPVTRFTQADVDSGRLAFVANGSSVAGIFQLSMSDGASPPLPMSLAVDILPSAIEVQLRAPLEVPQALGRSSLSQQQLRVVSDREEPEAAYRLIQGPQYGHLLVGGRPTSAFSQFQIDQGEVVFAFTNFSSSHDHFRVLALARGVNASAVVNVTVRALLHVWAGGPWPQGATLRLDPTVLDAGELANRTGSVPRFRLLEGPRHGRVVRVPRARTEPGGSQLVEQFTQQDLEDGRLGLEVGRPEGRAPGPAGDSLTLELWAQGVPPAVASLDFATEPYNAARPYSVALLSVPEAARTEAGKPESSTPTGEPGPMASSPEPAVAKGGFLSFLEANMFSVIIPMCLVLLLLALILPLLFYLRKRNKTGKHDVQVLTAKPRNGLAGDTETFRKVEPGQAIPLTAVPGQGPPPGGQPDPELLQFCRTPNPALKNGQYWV

| Substance | IC50, 72 h in vitro cytotoxicity on antigen-positive A375 human melanoma cells |
| --- | --- |
| scfvMEL/rGel fusion construct | 8 nM |
| IgG ZME-018-gelonin chemical conjugate | 8 nM |
